Results from publication PMC5409194 (Journal of Visualized Experiments : JoVE, 2017).

Biological target: the molecule itself
Test: […]

B1: C-terminal fragment (residue 323-785) of vaccinia virus protein D5 (domain or fragment)
chain: GNKLFNIAQRILDTNSVLLTERGDYIVWINNSWKFNSEEPLITKLILSIRHQLPKEYSSELLCPRKRKTVEANIRDMLVDSVETDTYPDKLPFKNGVLDLVDGMFYSGDDAKKYTCTVSTGFKFDDTKFVEDSPEMEELMNIINDIQPLTDENKKNRELYEKTLSSCLCGATKGCLTFFFGETATGKSTTKRLLKSAIGDLFVETGQTILTDVLDKGPNPFIANMHLKRSVFCSELPDFACSGSKKIRSDNIKKLTEPCVIGRPCFSNKINNRNHATIIIDTNYKPVFDRIDNALMRRIAVVRFRTHFSQPSGREAAENNDAYDKVKLLDEGLDGKIQNNRYRFAFLYLLVKWYKKYHVPIMKLYPTPEEIPDFAFYLKIGTLLVSSSVKHIPLMTDLSKKGYILYDNVVTLPLTTFQQKISKYFNSRLFGHDIESFINRHKKFANVSDEYLQYIFIEDISSP
With B1 the “stoichiometry N” value was 6.
